Test results reported in the supplement of paper PMC7125110.
± gives the standard error. For some of these results: Fewer inactive variants are shown than the library holds.

B1: glmS ribozyme (parent)
chain: AUAAAAGCGCCAGAACUACAGAAAUGUAGUUGACGAGGAGGAGGUUUAUCGAAUUUUCGGCGGAUGCCUCCAAA

What was measured:
Details in all cases: with glucosamine-6-phosphate
[1] = variants of: B1; experiment: kcat; higher = faster cleavage; RNA array
Procedure, shortened: (§1)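 Tiles of sequenced MiSeq chips were imaged over ~14 h at 37 °C. On them, barcoded ribozyme variants had been transcribed in situ by E. coli RNA polymerase and were tracked via a hybridised Cy3 probe while glucosamine-6-phosphate (40 μM to 10 mM) in HEPES/KCl/Mg(OAc)2 buffer flowed in. Per-tile medians, normalised to baseline and to non-cleaving reference variants, were fit to one- or two-exponential decays for kobs, and weighted Michaelis–Menten fits gave kcat and KM.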

[2] = variants of: B1; experiment: KM; higher = weaker cofactor use; RNA array
Procedure, shortened: as §1

[3] = variants of: B1; experiment: self-cleavage kobs at 160 uM GlcN6P; higher = faster cleavage; RNA array
Procedure, shortened: as §1

[4] = variants of: B1; experiment: self-cleavage kobs at 640 uM GlcN6P; higher = faster cleavage; RNA array
Procedure, shortened: as §1

[5] = variants of: B1; experiment: self-cleavage kobs at 2500 uM GlcN6P; higher = faster cleavage; RNA array
Procedure, shortened: as §1

[6] = variants of: B1; experiment: self-cleavage kobs at 10000 uM GlcN6P; higher = faster cleavage; RNA array
Procedure, shortened: as §1

[7] = variants of: B1; experiment: self-cleavage kobs at 40 uM GlcN6P; higher = faster cleavage; RNA array
Procedure, shortened: as §1

Variant | kcat [1] [s⁻¹] | KM [2] [µM] | self-cleavage kobs at 160 uM GlcN6P [3] [s⁻¹] | self-cleavage kobs at 640 uM GlcN6P [4] [s⁻¹] | self-cleavage kobs at 2500 uM GlcN6P [5] [s⁻¹] | self-cleavage kobs at 10000 uM GlcN6P [6] [s⁻¹] | self-cleavage kobs at 40 uM GlcN6P [7] [s⁻¹]
C58A C70U | 0.000164 ± 2.2e-05 | 718 ± 270 | 3.94e-05 ± 9.4e-06 | 6.79e-05 ± 8.4e-06 | 0.000143 ± 1.3e-05 | 0.000145 ± 1.7e-05 | –
A52G A53G | 0.00183 ± 0.00052 | 3690 ± 1700 | 0.000131 ± 3e-05 | 0.000264 ± 5.9e-05 | 0.000638 ± 0.0001 | 0.00145 ± 0.0002 | –
C11A U55C | 0.000132 ± 2.4e-05 | – | – | 3.19e-05 ± 1.5e-05 | 0.000125 ± 4.2e-05 | 0.000109 ± 2.1e-05 | –
C10U U55C | 3.56e-05 ± 9.4e-06 | – | – | – | – | 1.93e-05 ± 9e-06 | < 1e-05
C10U U55A | 1.86e-05 ± 2.2e-06 | – | – | – | – | 1.77e-05 ± 7.8e-06 | –
G40U U55C | 0.000228 ± 3.6e-06 | 6810 ± 240 | – | – | – | 0.000135 ± 1.7e-05 | –
C10A U69C | 1.7e-05 ± 1.9e-06 | – | – | – | – | – | –
G29U A39G | 0.0173 ± 0.0026 | 3640 ± 720 | 0.000723 ± 0.00021 | 0.00233 ± 0.0004 | 0.0072 ± 0.0012 | 0.0129 ± 0.0028 | 0.000218 ± 4.4e-05
A42G U49A | 1.03e-05 ± 2.5e-06 | – | – | – | – | – | –
A42G U49G | 0.00144 ± 0.00033 | 3190 ± 1100 | 5.71e-05 ± 1.4e-05 | 0.000275 ± 4.4e-05 | 0.000609 ± 9.7e-05 | 0.0011 ± 0.00017 | 5.36e-05 ± 2.3e-05
A36G C70G | 1.29e-05 ± 3e-06 | – | < 1e-05 | – | – | – | –
A33U G66A | 6.76e-05 ± 1.2e-06 | 2790 ± 180 | – | – | 3.2e-05 ± 1e-05 | 5.28e-05 ± 6.4e-06 | –
A12C G13A | 0.000473 ± 0.00016 | – | – | 6.42e-05 ± 1.2e-05 | 0.000302 ± 5.1e-05 | 0.00032 ± 5.7e-05 | –
U30G A53U | 0.00761 ± 0.0027 | – | 0.000465 ± 0.00011 | 0.0019 ± 0.00032 | 0.00357 ± 0.0007 | 0.00788 ± 0.0011 | 0.000261 ± 3.2e-05
C50U C58A | < 1e-05 | – | – | – | < 1e-05 | < 1e-05 | –
U65G C70A | 0.000185 ± 1.6e-05 | 825 ± 210 | – | 7.93e-05 ± 1.6e-05 | 0.000183 ± 6.7e-05 | 0.000167 ± 2.7e-05 | –
A14U G37U G63U | < 1e-05 | – | – | – | – | – | < 1e-05
U31G A53U | 0.019 ± 0.0084 | – | – | 0.00281 ± 0.00087 | 0.00587 ± 0.002 | 0.0128 ± 0.0024 | 0.000188 ± 3e-05

Variant | kcat [1] [s⁻¹] | KM [2] [µM] | self-cleavage kobs at 160 uM GlcN6P [3] [s⁻¹] | self-cleavage kobs at 640 uM GlcN6P [4] [s⁻¹] | self-cleavage kobs at 2500 uM GlcN6P [5] [s⁻¹] | self-cleavage kobs at 10000 uM GlcN6P [6] [s⁻¹] | self-cleavage kobs at 40 uM GlcN6P [7] [s⁻¹]
A12C G66U | 0.00165 ± 0.00058 | 1990 ± 990 | 9.73e-05 ± 1.3e-05 | 0.000586 ± 6.9e-05 | 0.000865 ± 0.00014 | 0.00133 ± 0.0002 | 5.83e-05 ± 1.3e-05
U49G C71U | 0.00102 ± 0.00022 | 2160 ± 970 | – | 0.000246 ± 2.9e-05 | 0.00041 ± 6.9e-05 | 0.000902 ± 7.8e-05 | 3.07e-05 ± 9.2e-06
G41A C70U | 0.0433 ± 0.0066 | 1100 ± 210 | 0.0046 ± 0.0007 | 0.0179 ± 0.0025 | 0.0385 ± 0.013 | 0.0374 ± 0.0057 | 0.00159 ± 0.00013
A12U G43A | 0.000218 ± 2.6e-05 | 2010 ± 540 | – | 4.88e-05 ± 1e-05 | 0.000139 ± 1.8e-05 | 0.000173 ± 2.2e-05 | –
A6C U54G | 0.000119 ± 4.3e-06 | 4980 ± 410 | – | – | 3.94e-05 ± 9.9e-06 | 7.93e-05 ± 1.1e-05 | –
C10G C11G | < 1e-05 | – | < 1e-05 | – | – | – | < 1e-05
U31A G32U | 0.00113 ± 0.00055 | – | 4.59e-05 ± 2e-05 | 6.96e-05 ± 1.7e-05 | 0.000256 ± 4.4e-05 | 0.0006 ± 0.00016 | –
C58G C67G C70G | 5.76e-05 ± 2.6e-05 | – | – | 6.3e-05 ± 2.3e-05 | 8.09e-05 ± 3e-05 | – | –
C11U U54C U56C | 0.000628 ± 6.2e-05 | 8410 ± 1200 | – | 4.18e-05 ± 1.9e-05 | 0.000151 ± 4.7e-05 | 0.000337 ± 9.5e-05 | –
A33U C71A | 4.74e-05 ± 6.5e-07 | 919 ± 65 | – | – | 3.52e-05 ± 8.5e-06 | 4.32e-05 ± 6.2e-06 | < 1e-05
G38A G62U | < 1e-05 | – | – | < 1e-05 | – | – | –
G32A C68G | 3.18e-05 ± 4.2e-06 | – | – | – | 3.93e-05 ± 1.4e-05 | 2.81e-05 ± 9.3e-06 | –
C70A C71U | 9.41e-05 ± 4.3e-06 | 384 ± 58 | 2.83e-05 ± 1e-05 | 5.75e-05 ± 1e-05 | 8.22e-05 ± 1e-05 | – | –
A14U U49G A53U U69G | 6.87e-05 ± 2.3e-05 | – | 8.99e-05 ± 3.4e-05 | – | 7.58e-05 ± 2.1e-05 | – | –
G35U C50A | 8.05e-05 ± 9.8e-06 | 1970 ± 740 | – | – | 4.74e-05 ± 9e-06 | 6.59e-05 ± 1.2e-05 | –
C16A U31G | 0.000292 ± 2.2e-05 | 1280 ± 200 | 4.15e-05 ± 1.7e-05 | 9.42e-05 ± 1.8e-05 | 0.000177 ± 5e-05 | 0.000267 ± 4.3e-05 | –
A15G G32C C67G | 1.35e-05 ± 1.1e-06 | – | – | – | – | – | –
